Data from patent publication US20250163167A1 (SYNTHEKINE, published 2025).
Each block holds one binder with its values, some of them ahead of it.

Target: T1, human IL-10 receptor (hIL-10R alpha and beta chains) on HEK-Blue IL-10 reporter cells (human, UniProt Q13651 22-578; Q08334 20-325)
T1 sequence 1: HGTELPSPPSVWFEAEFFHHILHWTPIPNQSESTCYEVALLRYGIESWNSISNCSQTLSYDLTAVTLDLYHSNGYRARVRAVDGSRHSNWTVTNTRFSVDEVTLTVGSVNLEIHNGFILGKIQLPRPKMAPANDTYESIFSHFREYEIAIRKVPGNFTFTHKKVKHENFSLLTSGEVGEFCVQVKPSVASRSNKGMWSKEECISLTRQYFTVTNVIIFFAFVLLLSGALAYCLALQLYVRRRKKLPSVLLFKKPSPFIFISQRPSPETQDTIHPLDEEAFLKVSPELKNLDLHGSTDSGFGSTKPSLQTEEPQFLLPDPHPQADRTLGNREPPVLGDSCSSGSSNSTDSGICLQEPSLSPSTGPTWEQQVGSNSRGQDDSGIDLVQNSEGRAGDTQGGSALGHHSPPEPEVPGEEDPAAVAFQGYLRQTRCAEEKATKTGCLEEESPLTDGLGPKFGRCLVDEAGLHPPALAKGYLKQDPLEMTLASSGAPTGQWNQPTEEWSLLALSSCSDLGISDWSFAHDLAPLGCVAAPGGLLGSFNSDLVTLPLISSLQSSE
T1 sequence 2: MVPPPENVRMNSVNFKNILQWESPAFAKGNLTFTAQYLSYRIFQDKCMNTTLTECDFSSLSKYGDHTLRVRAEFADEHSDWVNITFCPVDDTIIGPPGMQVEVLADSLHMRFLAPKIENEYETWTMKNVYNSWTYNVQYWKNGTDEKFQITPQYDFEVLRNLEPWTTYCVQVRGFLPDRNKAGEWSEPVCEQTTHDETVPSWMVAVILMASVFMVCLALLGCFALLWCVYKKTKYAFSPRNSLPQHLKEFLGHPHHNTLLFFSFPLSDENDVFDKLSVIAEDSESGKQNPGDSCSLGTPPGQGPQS
Test: cell-based or functional assay

B1: IL10R binding molecule of SEQ ID NO: 279 (bispecific antibody)
chain: QVQLQESGGGSVQAGGSLRLSCAVSGYAYSTYCMGWFRQAPGKEREGVAAIDSGGSTSYADSVKGRFTISKDNAKNTLYLRMNSLKPEDTAMYYCAAVPPPPDGGSCLFLGPEIKVSKADFRYWGQGTQVTVSSGGGSQVQLQESGGGSVQAGGSLRLSCAASRYTYNSYCMGWFRQAPGKEREGVATIDSDGMTRYADSVKGRFTISKDNAKNTLYLQMNSLKPEDTAMYYCAADADCTIAAMTTNPLGQGTQVTVSSASHHHHHH
- Abs 630 (25 nM): 0.49 Abs 630
- Abs 630 (100 nM): 0.39 Abs 630

B4: IL10R binding molecule of SEQ ID NO: 275 (bispecific antibody)
chain: QVQLQESGGGSVQAGGSLRLSCAASGYTYSMYCMGWFRQAPGKEREGVAQINSDGSTSYADSVKGRFTISKDNAKNTLYLQMNSLKPEDTAMYYCAADSRVYGGSWYERLCGPYTYEYNYWGQGTQVTVSSGGGSQVQLQESGGGSVQAGGSLRLSCAASGYSYSSYCMGWFRQAPGKEREGVATIDSDGMTRYADSVKGRFTISKDNAKNTLYLQMNSLKPEDTAMYYCAAPLYDCDSGAVGRNPPYWGQGTQVTVSSASHHHHHH
- Abs 630 (25 nM): 0.51 Abs 630
- Abs 630 (100 nM): 0.36 Abs 630

B5: IL10R binding molecule of SEQ ID NO: 277 (bispecific antibody)
chain: QVQLQESGGGSVQAGGSLRLSCAVSGYAYSTYCMGWFRQAPGKEREGVAAIDSGGSTSYADSVKGRFTISKDNAKNTLYLRMNSLKPEDTAMYYCAAVPPPPDGGSCLFLGPEIKVSKADFRYWGQGTQVTVSSGGGSQVQLQESGGGSVQAGGSLRLSCAASGYTYSSGCMGWFRQAPGKEREAVAAINSDGSTSYADSVKGRFTISKDNAKNTLYLQMNSLKPEDTAMYYCAAEPYCSGGYPRWSVAEFGYWGQGTQVTVSSASHHHHHH
- Abs 630 (25 nM): 1.19 Abs 630
- Abs 630 (100 nM): 1 Abs 630

B7: IL10R binding molecule of SEQ ID NO: 273 (bispecific antibody)
chain: QVQLQESGGGSVQAGGSLRLSCAASGYTYSMYCMGWFRQAPGKEREGVAQINSDGSTSYADSVKGRFTISKDNAKNTLYLQMNSLKPEDTAMYYCAADSRVYGGSWYERLCGPYTYEYNYWGQGTQVTVSSGGGSQVQLQESGGGSVQAGGSLRLSCTVSRYTASVNYMGWFRQAPGKEREGVATIFTGAGTTYYANSVKGRFTISRDNAKNTAYLQMNSLKPEDTAIYYCAVDFRGGLLYRPAYEYTYRGQGTQVTVSSASHHHHHH
- Abs 630 (25 nM): 0.52 Abs 630
- Abs 630 (100 nM): 0.41 Abs 630

B8: IL10R binding molecule of SEQ ID NO: 278 (bispecific antibody)
chain: QVQLQESGGGSVQAGGSLRLSCAVSGYAYSTYCMGWFRQAPGKEREGVAAIDSGGSTSYADSVKGRFTISKDNAKNTLYLRMNSLKPEDTAMYYCAAVPPPPDGGSCLFLGPEIKVSKADFRYWGQGTQVTVSSGGGSQVQLQESGGGSVQAGGSLRLSCAASGYTYSSYCMGWFRQAPGKEREGVAHIDSDGSTSYADSVKGRFTISKDNAKNTLYLQMNSLKPEDTAMYYCAADPIPGPGYCDGGPNKYWGQGTQVTVSSASHHHHHH
- Abs 630 (25 nM): 1.61 Abs 630
- Abs 630 (100 nM): 1.18 Abs 630

B10: IL10R binding molecule of SEQ ID NO: 270 (bispecific antibody)
chain: QVQLQESGGGSVQAGGSLRLSCAASGYTYSMYCMGWFRQAPGKEREGVAQINSDGSTSYADSVKGRFTISKDNAKNTLYLQMNSLKPEDTAMYYCAADSRVYGGSWYERLCGPYTYEYNYWGQGTQVTVSSGGGSQVQLQESGGGSVQAGGSLRLSCAASGYTYSSGCMGWFRQAPGKEREAVAAINSDGSTSYADSVKGRFTISKDNAKNTLYLQMNSLKPEDTAMYYCAAEPYCSGGYPRWSVAEFGYWGQGTQVTVSSASHHHHHH
- Abs 630 (25 nM): 1.41 Abs 630
- Abs 630 (100 nM): 0.73 Abs 630

B11: IL10R binding molecule of SEQ ID NO: 256 (bispecific antibody)
chain: QVQLQESGGGSVQAGGSLRLSCAASRYLYSIDYMAWFRQSPGKEREPVAVIYTASGATFYPDSVKGRFTISQDNAKMTVYLQMNSLKSEDTAMYYCAAVRKTDSYLFDAQSFTYWGQGTQVTVSSGGGSQVQLQESGGGSVQAGGSLRLSCAASGYTYSSGCMGWFRQAPGKEREAVAAINSDGSTSYADSVKGRFTISKDNAKNTLYLQMNSLKPEDTAMYYCAAEPYCSGGYPRWSVAEFGYWGQGTQVTVSSASHHHHHH
- Abs 630 (25 nM): 0.49 Abs 630
- Abs 630 (100 nM): 0.39 Abs 630

B13: IL10R binding molecule of SEQ ID NO: 271 (bispecific antibody)
chain: QVQLQESGGGSVQAGGSLRLSCAASGYTYSMYCMGWFRQAPGKEREGVAQINSDGSTSYADSVKGRFTISKDNAKNTLYLQMNSLKPEDTAMYYCAADSRVYGGSWYERLCGPYTYEYNYWGQGTQVTVSSGGGSQVQLQESGGGSVQAGGSLRLSCAASGYTYSSYCMGWFRQAPGKEREGVAHIDSDGSTSYADSVKGRFTISKDNAKNTLYLQMNSLKPEDTAMYYCAADPIPGPGYCDGGPNKYWGQGTQVTVSSASHHHHHH
- Abs 630 (25 nM): 1.93 Abs 630
- Abs 630 (100 nM): 1.65 Abs 630

B14: IL10R binding molecule of SEQ ID NO: 274 (bispecific antibody)
chain: QVQLQESGGGSVQAGGSLRLSCAASGYTYSMYCMGWFRQAPGKEREGVAQINSDGSTSYADSVKGRFTISKDNAKNTLYLQMNSLKPEDTAMYYCAADSRVYGGSWYERLCGPYTYEYNYWGQGTQVTVSSGGGSQVQLQESGGGSVEAGGSLRLSCAASGYTHSSYCMGWFRQAPGKEREGVAAIDVDGSTTYADSVKGRFTISKDNAKNTLYLQMNSLKPEDTGMYYCAAEFADCSSNYFLPPGAVRYWGQGTQVTVSSASHHHHHH
- Abs 630 (25 nM): 0.46 Abs 630
- Abs 630 (100 nM): 0.37 Abs 630

B15: IL10R binding molecule of SEQ ID NO: 276 (bispecific antibody)
chain: QVQLQESGGGSVQAGGSLRLSCAASGYTYSMYCMGWFRQAPGKEREGVAQINSDGSTSYADSVKGRFTISKDNAKNTLYLQMNSLKPEDTAMYYCAADSRVYGGSWYERLCGPYTYEYNYWGQGTQVTVSSGGGSQVQLQESGGGSVQTGGSLRLSCAASGYTYLRGCMGWFRQAPGKEREGVAVMDVVGDRRSYIDSVKGRFTISRDNAANSVYLQMDNLKPEDTAMYYCTAGPNCVGWRSGLDYWGQGTQVTVSSASHHHHHH
- Abs 630 (25 nM): 0.46 Abs 630
- Abs 630 (100 nM): 0.36 Abs 630

B16: IL10R binding molecule of SEQ ID NO: 282 (bispecific antibody)
chain: QVQLQESGGGSVQAGGSLRLSCAVSGYAYSTYCMGWFRQAPGKEREGVAAIDSGGSTSYADSVKGRFTISKDNAKNTLYLRMNSLKPEDTAMYYCAAVPPPPDGGSCLFLGPEIKVSKADFRYWGQGTQVTVSSGGGSQVQLQESGGGSVQAGGSLRLSCAASGYSYSSYCMGWFRQAPGKEREGVATIDSDGMTRYADSVKGRFTISKDNAKNTLYLQMNSLKPEDTAMYYCAAPLYDCDSGAVGRNPPYWGQGTQVTVSSASHHHHHH
- Abs 630 (25 nM): 0.44 Abs 630
- Abs 630 (100 nM): 0.36 Abs 630

Further lines, results first:

- Abs 630 (25 nM): 0.47 Abs 630
- Abs 630 (100 nM): 0.38 Abs 630
B2: IL10R binding molecule of SEQ ID NO: 272 (bispecific antibody)
chain: QVQLQESGGGSVQAGGSLRLSCAASGYTYSMYCMGWFRQAPGKEREGVAQINSDGSTSYADSVKGRFTISKDNAKNTLYLQMNSLKPEDTAMYYCAADSRVYGGSWYERLCGPYTYEYNYWGQGTQVTVSSGGGSQVQLQESGGGSVQAGGSLRLSCAASRYTYNSYCMGWFRQAPGKEREGVATIDSDGMTRYADSVKGRFTISKDNAKNTLYLQMNSLKPEDTAMYYCAADADCTIAAMTTNPLGQGTQVTVSSASHHHHHH

- Abs 630 (25 nM): 0.45 Abs 630
- Abs 630 (100 nM): 0.36 Abs 630
B3: IL10R binding molecule of SEQ ID NO: 257 (bispecific antibody)
chain: QVQLQESGGGSVQAGGSLRLSCAASRYLYSIDYMAWFRQSPGKEREPVAVIYTASGATFYPDSVKGRFTISQDNAKMTVYLQMNSLKSEDTAMYYCAAVRKTDSYLFDAQSFTYWGQGTQVTVSSGGGSQVQLQESGGGSVQAGGSLRLSCAASGYTYSSYCMGWFRQAPGKEREGVAHIDSDGSTSYADSVKGRFTISKDNAKNTLYLQMNSLKPEDTAMYYCAADPIPGPGYCDGGPNKYWGQGTQVTVSSASHHHHHH

- Abs 630 (25 nM): 0.66 Abs 630
- Abs 630 (100 nM): 0.69 Abs 630
B6: IL10R binding molecule of SEQ ID NO: 281 (bispecific antibody)
chain: QVQLQESGGGSVQAGGSLRLSCAVSGYAYSTYCMGWFRQAPGKEREGVAAIDSGGSTSYADSVKGRFTISKDNAKNTLYLRMNSLKPEDTAMYYCAAVPPPPDGGSCLFLGPEIKVSKADFRYWGQGTQVTVSSGGGSQVQLQESGGGSVEAGGSLRLSCAASGYTHSSYCMGWFRQAPGKEREGVAAIDVDGSTTYADSVKGRFTISKDNAKNTLYLQMNSLKPEDTGMYYCAAEFADCSSNYFLPPGAVRYWGQGTQVTVSSASHHHHHH

- Abs 630 (25 nM): 0.49 Abs 630
- Abs 630 (100 nM): 0.37 Abs 630
B9: IL10R binding molecule of SEQ ID NO: 280 (bispecific antibody)
chain: QVQLQESGGGSVQAGGSLRLSCAVSGYAYSTYCMGWFRQAPGKEREGVAAIDSGGSTSYADSVKGRFTISKDNAKNTLYLRMNSLKPEDTAMYYCAAVPPPPDGGSCLFLGPEIKVSKADFRYWGQGTQVTVSSGGGSQVQLQESGGGSVQAGGSLRLSCTVSRYTASVNYMGWFRQAPGKEREGVATIFTGAGTTYYANSVKGRFTISRDNAKNTAYLQMNSLKPEDTAIYYCAVDFRGGLLYRPAYEYTYRGQGTQVTVSSASHHHHHH

- Abs 630 (25 nM): 0.46 Abs 630
- Abs 630 (100 nM): 0.37 Abs 630
B12: IL10R binding molecule of SEQ ID NO: 269 (bispecific antibody)
chain: QVQLQESGGGSVQAGGSLRLSCAASRFTYSSYCMGWFRQAPGKEREGVASIDSDGSTSYTDSVKGRFTISKDNAKNTLYLQMNSLKPEDTAMYYCALDLMSTVVPGFCGFLLSAGMDYWGKGTQVTVSSGGGSQVQLQESGGGSVQTGGSLRLSCAASGYTYLRGCMGWFRQAPGKEREGVAVMDVVGDRRSYIDSVKGRFTISRDNAANSVYLQMDNLKPEDTAMYYCTAGPNCVGWRSGLDYWGQGTQVTVSSASHHHHHH
